Data reported in patent US20220396632A1 (VERSEAU THERAPEUTICS, published 2022).
Non-standard residues stand in square brackets, D forms with d. No end group written: not given here. *: point of attachment. Biotin = O=C1N[C@H]2[C@H](CS[C@H]2CCCCC(=O)*)N1; sY = N[C@@H](Cc1ccc(OS(=O)(=O)O)cc1)C(=O)O

T1: Biotin Y46,48,51(SO3) PSGL-1(42-62) peptide (human, sulfotyrosine at Y46, Y48 and Y51; C-terminal Lys-biotin)
T1 construct: also called fully sulfated N-terminal PSGL-1 peptide
T1 peptide: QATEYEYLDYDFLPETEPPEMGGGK

T2: Scrambled Y42,52,63(SO3) PSGL-1(42-62) biotin peptide (sulfotyrosine at peptide positions 1, 11 and 22; C-terminal Lys-biotin)
T2 peptide: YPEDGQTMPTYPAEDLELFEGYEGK

T3: Biotin PSGL-1(42-62) peptide, unmodified (human, C-terminal Lys-biotin)
T3 construct: Residues 42-62 followed by GGGK-biotin; also called WT; wild-type
T3 peptide: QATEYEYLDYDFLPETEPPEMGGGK

T4: SulfoCCK biotin peptide (human)
T4 construct: also called sulfotyrosine CCK peptide
T4 peptide: SHRISDRD[sY]MGWMDFGGK(Biotin)

T5: Sulfotyrosine CCR2b biotin peptide (human)
T5 construct: also called CCR2b peptide
T5 peptide: TTFFD[sY]D[sY]GAPSHGGK(Biotin)

T6: Human fibrinogen protein (ThermoFisher, RP-43142) (human, UniProt P02671 20-629; P02675 31-491; P02679 27-453, limits assumed, natural sulfotyrosines)
T6 construct: mature; Native dimer with 3 pairs of non-identical chains; also called gamma-fibrinogen; γ fibrinogen protein
T6 sequence (looked up) 1: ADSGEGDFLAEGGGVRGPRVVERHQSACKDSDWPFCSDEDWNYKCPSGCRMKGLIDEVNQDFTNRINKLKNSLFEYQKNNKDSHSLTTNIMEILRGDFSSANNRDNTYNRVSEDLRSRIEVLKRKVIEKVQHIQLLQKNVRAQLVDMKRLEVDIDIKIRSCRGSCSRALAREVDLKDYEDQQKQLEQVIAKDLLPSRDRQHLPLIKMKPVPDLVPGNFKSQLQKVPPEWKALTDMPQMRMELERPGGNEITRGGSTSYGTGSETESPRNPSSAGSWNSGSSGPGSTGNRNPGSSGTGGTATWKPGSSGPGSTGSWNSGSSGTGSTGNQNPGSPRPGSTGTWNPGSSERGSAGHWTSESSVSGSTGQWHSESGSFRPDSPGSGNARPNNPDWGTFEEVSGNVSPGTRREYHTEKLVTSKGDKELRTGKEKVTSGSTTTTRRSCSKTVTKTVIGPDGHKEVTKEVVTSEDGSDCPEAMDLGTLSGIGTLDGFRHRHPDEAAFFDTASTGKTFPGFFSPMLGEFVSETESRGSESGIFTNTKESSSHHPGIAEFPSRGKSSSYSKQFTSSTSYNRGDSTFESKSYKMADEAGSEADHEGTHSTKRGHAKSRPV
T6 sequence (looked up) 2: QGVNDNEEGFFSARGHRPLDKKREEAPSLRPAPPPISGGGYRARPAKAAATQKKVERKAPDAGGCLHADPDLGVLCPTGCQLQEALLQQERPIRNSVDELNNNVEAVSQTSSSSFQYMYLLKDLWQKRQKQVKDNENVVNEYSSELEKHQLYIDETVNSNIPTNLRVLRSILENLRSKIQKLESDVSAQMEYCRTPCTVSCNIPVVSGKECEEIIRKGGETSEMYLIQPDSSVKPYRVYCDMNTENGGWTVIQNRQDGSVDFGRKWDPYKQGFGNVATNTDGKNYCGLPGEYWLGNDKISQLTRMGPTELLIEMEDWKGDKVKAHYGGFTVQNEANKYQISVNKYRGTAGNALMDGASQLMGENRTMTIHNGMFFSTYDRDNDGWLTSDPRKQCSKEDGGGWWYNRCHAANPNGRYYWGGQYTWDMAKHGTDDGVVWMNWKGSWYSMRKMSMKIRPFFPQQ
T6 sequence (looked up) 3: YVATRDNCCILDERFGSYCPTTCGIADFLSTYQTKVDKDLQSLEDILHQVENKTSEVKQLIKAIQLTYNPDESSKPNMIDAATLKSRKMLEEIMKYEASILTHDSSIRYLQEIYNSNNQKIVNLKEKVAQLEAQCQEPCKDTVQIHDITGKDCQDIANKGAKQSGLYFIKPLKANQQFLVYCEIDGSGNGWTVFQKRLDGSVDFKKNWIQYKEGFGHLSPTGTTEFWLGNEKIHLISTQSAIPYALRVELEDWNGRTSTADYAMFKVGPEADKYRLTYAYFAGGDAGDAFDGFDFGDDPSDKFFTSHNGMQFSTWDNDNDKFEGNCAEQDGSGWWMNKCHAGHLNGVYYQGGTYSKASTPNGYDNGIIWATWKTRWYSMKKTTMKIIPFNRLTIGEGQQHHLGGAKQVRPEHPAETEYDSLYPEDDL

T7: SulfoTyr C4 peptide (not fully specified; Y4, Y7 and Y9 sulfated (SO3); C-terminal biotin)
T7 construct: also called C4 alpha chain peptide; human sulfotyrosinylated C4 peptide
T7 peptide: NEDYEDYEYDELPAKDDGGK

T8: Sulfotyr fibrinogen γ peptide (not fully specified; Y8 and Y12 sulfated (SO3); C-terminal biotin)
T8 construct: also called Fibrinogen gamma peptide; human sulfotyrosinylated fibrinogen peptide
T8 peptide: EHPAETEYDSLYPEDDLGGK

T9: Sulfotyrosine D6 biotin peptide (human)
T9 construct: also called D6 peptide
T9 peptide: ENSSFY[sY][sY]D[sY]LDEVAFGGK(Biotin)

B1: 02H08 (antibody, IgG4, V domains shown)
VH: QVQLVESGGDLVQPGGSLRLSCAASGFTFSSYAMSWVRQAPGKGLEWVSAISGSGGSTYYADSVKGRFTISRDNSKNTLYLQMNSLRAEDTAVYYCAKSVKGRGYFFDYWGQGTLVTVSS
VL: QSVLTQPPSVSAAPGQKVTISCSGSYFNIGNHYVSWYHQLPGTAPKLLIYDNNLRPSGIPDRFSASKSGTSATLGITGLQTGDEGDYYCGTWDSSLSGRVFGGGTKLTVL
B2: 02G01 (antibody, IgG4, V domains shown)
VH: EVQLVQSGAEVKKPGASVKVSCKASGYTFTSYGISWVRQAPGQGLEWMGWISAYNGNTNYAQKLQGRVTMTTDTSTSTAYMELRSLRSDDTAVYYCARVTRLPGGGYAFDIWGQGTMVTVSL
VL: QSVLTQPPSASGTPGQRITISCSGSTSNIGNKHVYWYQQFPGAAPKLLIHNTNKRPSGVPDRFSGSKSGTSASLAISGLQSDDEADYYCAAWDGSLSAWVFGGGTKLTVL
B3: 03B01 (antibody, IgG4, V domains shown)
VH: QMQLVQSGAEVKKPGASVKVSCRASGYRFSTYAISWVRQAPGQGLEWIGWISTHHGNTKYAQKFQDRVTMTADASTSIAYMELRSLRSDDTAVYYCAAAIGNYWGQGTLVTVSS
VL: EIVLTQSPAILSVSPGERASLSCRASQSVSSKLAWYQQKPGQAPRLLIYGASTRATGIPPRFSGSGSGTDFTLTISSLEPEDFAVYYCQQRSNWPLTFGGGTKVEIK
B4: 06B02 (antibody, IgG4, V domains shown)
VH: QVQLVESGPGLVKPSETLSLTCTVSGVSVSSYYWTWVRQSPGKGLEWIGHVHHSGISNYNPSLKSRVVMSVDTSKNYFSLKLRSVTAADTAVYYCARGGPRISPTNWGQGTLVTVSS
VL: QPVLTQPPSVSKALRQTATLTCTGNSNNVGYQGATWLRQHQGHPPRLLSYRNNNRPSGISERFSASRSGNTATLTITGLQPDDEADYYCAAWDSSLSAWVFGGGTKLTVL
B5: 05A07 (antibody, IgG4, V domains shown)
VH: QVQLVQSGSEVKRPGASVKVSCKTSGYTFSNYGIAWVRQAPGQGLEWVGWVSAYNGKTGASQKLQGRVTMTTDRSTTTAYLELRSLQSDDTAVYYCARGVKGGLTGYARDYWGQGTLVIVSS
VL: DIVLTQSPRSLPVTLGQPASISCRSSQSLVNRAGDTYLNWFQQRPGQSPRRLIYKVSNRDSGVPDRFSGSGSGTDFTLKISRVEAEDVGVYYCMQGTQWPYTFGQGTKLEIK

Experiments:
[1] = target: T1, Biotin Y46,48,51(SO3) PSGL-1(42-62) …; assay: ELISA, immobilized biotin peptide
Method in brief: (§1)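 In this ELISA, half-well high binding plates (Corning Cat. #3690) received 3 ug/mL/25 ul per well of biotin-tagged PSGL-1 peptides covering residues 42 to 62, diluted in PBS, pH 7.4, and coated overnight at 4° C. Duplicate readings for each antibody were averaged and the average assay background was subtracted. PSGL-1 protein or peptide was the positive control.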

[2] = target: T2, Scrambled Y42,52,63(SO3) PSGL-1(42-62) …; assay: ELISA, immobilized biotin peptide
Method in brief: as §1

[3] = target: T3, Biotin PSGL-1(42-62) peptide, unmodified; assay: ELISA, immobilized biotin peptide
Method in brief: as §1

[4] = target: T10, Cynomolgus PSGL-1(ECD)-hFc1 (cynomolgus macaque); assay: ELISA, plate cyno PSGL-1(ECD)-Fc
T10 construct: also called Cyno PSGL1-Fc; Cyno PSGL-1(ECD)-Fc
Protocol: Antibody binding to plate-immobilized cyno PSGL-1(ECD) was determined either at one concentration (20 nM) or by generating full antibody binding curves (0.003-200 nM). A typical ELISA was performed by overnight coating at 4° C. with 3 ug/mL/25 ul per well of recombinant cyno PSGL-1(ECD) protein in PBS, pH 7.4, in high binding half-well plates (Corning Cat. #3690). […] Anti-PSGL-1 IgG in assay buffer (blocking buffer containing 0.05% tween 20) was added into test and control wells (20 nM/25 ul/well) and the plate incubated for 45 min at 37° C. […] The plate was incubated for 45 min at 37° C., and mAb bound to plate-immobilized target determined at A450 nm using HRP substrate (3,3′,5,5′-tetramethylbenzidine (TMB)). For each antibody, duplicate values were averaged and assay background subtracted.

[5] = target: T11, Human complement C4 protein (Millipore Sigma, Cat. 204886) (human, UniProt P0C0L4 20-675; P0C0L4 680-1446; P0C0L4 1454-1744, limits assumed, natural sulfotyrosines); assay: ELISA, 50 nM mAb
T11 construct: mature
Protocol: (§2) Recombinant PSGL-1-hFc1 chimera protein consisting of PSGL-1's extracellular domain (ECD) served as a positive control. […] Primary antibody was added (25 ul per well) in duplicate at 50 nM in assay buffer (blocking buffer containing 0.05% Tween®20) into test and control (just blocked) wells and the plate incubated for 45 min at 37° C.

SulfoCCK biotin peptide = target: T4, SulfoCCK biotin peptide; assay: ELISA, 50 nM mAb
Protocol: as §2

[6] = target: T5, Sulfotyrosine CCR2b biotin peptide; assay: ELISA, 50 nM mAb
Protocol: as §2

[7] = target: T6, Human fibrinogen protein (ThermoFisher, …); assay: ELISA, 50 nM mAb
Protocol: as §2

SulfoTyr C4 peptide = target: T7, SulfoTyr C4 peptide; assay: ELISA, 50 nM mAb
Protocol: as §2

[8] = target: T8, Sulfotyr fibrinogen γ peptide; assay: ELISA, 50 nM mAb
Protocol: as §2

[9] = target: T9, Sulfotyrosine D6 biotin peptide; assay: ELISA, 50 nM mAb
Protocol: as §2

T11 sequence (P0C0L4 20-675 limits assumed, form in doubt, chain 1 of 3): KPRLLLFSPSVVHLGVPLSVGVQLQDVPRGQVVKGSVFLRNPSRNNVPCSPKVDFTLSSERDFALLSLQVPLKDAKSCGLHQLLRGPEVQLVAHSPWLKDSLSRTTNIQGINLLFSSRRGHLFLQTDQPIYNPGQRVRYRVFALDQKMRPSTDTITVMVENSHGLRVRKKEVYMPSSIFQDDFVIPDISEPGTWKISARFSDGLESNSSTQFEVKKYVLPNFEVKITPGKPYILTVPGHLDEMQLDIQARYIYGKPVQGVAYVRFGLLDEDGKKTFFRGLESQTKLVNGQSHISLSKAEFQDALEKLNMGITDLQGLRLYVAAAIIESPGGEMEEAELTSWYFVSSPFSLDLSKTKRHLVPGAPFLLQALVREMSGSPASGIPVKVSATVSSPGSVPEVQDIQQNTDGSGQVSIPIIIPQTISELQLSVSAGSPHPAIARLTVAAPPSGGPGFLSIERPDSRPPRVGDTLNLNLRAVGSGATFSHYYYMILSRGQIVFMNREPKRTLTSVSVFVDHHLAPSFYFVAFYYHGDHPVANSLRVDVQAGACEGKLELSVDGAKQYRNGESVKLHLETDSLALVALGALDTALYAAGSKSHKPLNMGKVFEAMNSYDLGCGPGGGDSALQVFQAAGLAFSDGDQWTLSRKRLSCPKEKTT
T11 sequence (P0C0L4 680-1446 limits assumed, form in doubt, chain 2 of 3): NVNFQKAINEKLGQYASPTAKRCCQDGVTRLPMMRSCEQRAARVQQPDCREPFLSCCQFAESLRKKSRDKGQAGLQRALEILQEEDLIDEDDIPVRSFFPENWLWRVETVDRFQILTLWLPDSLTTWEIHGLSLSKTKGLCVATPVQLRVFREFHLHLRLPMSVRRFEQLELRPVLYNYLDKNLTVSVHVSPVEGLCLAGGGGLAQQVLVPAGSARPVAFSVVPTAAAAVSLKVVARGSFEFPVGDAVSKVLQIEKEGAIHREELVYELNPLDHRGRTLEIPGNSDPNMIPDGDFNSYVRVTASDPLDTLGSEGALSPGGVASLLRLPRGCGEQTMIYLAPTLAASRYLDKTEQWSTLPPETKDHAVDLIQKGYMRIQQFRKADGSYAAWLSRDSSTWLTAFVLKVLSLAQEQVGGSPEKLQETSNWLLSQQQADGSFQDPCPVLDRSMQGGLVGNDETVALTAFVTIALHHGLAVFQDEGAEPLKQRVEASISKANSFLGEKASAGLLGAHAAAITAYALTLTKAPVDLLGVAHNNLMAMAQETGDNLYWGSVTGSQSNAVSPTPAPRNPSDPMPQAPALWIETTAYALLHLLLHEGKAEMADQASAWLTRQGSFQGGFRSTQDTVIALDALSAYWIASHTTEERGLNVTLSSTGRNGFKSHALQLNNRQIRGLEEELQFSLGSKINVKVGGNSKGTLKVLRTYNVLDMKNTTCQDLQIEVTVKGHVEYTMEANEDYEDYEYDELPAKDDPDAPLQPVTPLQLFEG
T11 sequence (P0C0L4 1454-1744 limits assumed, form in doubt, chain 3 of 3): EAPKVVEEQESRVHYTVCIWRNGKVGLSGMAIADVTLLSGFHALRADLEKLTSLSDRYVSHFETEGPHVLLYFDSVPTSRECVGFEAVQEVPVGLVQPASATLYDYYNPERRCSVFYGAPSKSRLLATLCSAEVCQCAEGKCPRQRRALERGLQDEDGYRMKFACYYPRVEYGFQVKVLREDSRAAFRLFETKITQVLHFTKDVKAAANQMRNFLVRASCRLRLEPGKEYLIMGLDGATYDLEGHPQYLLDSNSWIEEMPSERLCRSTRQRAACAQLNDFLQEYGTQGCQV

| Binder | A450nm, 20 nM mAb [1] [A450nm] | EC50 [1] [nM] | A450nm, 20 nM mAb [2] [A450nm] | binding result [2] | EC50 [3] [nM] | binding result [4] | binding normalized to PSGL-1 [5] | binding normalized to PSGL-1 (SulfoCCK biotin peptide) | binding normalized to PSGL-1 [6] | binding normalized to PSGL-1 [7] | binding normalized to PSGL-1 (SulfoTyr C4 peptide) | binding normalized to PSGL-1 [8] | binding normalized to PSGL-1 [9] | A450nm, 20 nM mAb [3] [A450nm] |
| --- | --- | --- | --- | --- | --- | --- | --- | --- | --- | --- | --- | --- | --- | --- |
| B1 | 2.45 | 1.6 | 0.03 | no binding (tested: 20 nM) | > 500 | no binding (tested: 20 nM) | 0.94 | 1.27 | 1.32 | 0.11 | 1.34 | 1.34 | – | – |
| B2 | 2.72 | 0.03 | – | no binding (tested: 20 nM) | 3.8 | no binding (tested: 20 nM) | 0.58 | 1.1 | 0.78 | 0.07 | 0.94 | 0.97 | 0.69 | – |
| B3 | 2.62 | 0.04 | 0.04 | no binding (tested: 20 nM) | ~500 | no binding (tested: 20 nM) | 1.1 | 1.14 | 1.1 | 0.11 | 1.15 | 1.23 | – | – |
| B4 | 2.57 | – | – | no binding (tested: 20 nM) | – | no binding (tested: 20 nM) | 1.09 | 0.78 | 0.61 | 0.03 | 0.97 | 1.22 | – | 0.37 |
| B5 | 2.44 | – | – | no binding (tested: 20 nM) | – | no binding (tested: 20 nM) | 1.13 | 1.17 | 1.09 | 0.53 | 1.15 | 1.22 | 1.22 | 0.17 |
